The nature of the series: protein stability index of a GFP-peptide fusion (yeast GPS) (PSI 1-4); higher = more stable; sorted into four equal gates, so the index is relative within each strain. The procedure, abridged:
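Tiled 17-residue yeast protein peptides were fused downstream of GFP in a plasmid that also expresses Cherry, and the pooled library was carried in yeast. Mid-log cultures in leucine-free medium were sorted into four equal gates by GFP/Cherry fluorescence ratio, and plasmids from each gate were PCR-amplified and Illumina-sequenced, with reads assigned to strains by barcodes. The protein stability index for each peptide was each gate's read frequency times its gate number, summed.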

± gives the uncertainty stated by the source.

In the supplement of paper PMC9732359 one finds protein stability index data, which are given here for 26 sequences.

In turn, SSFNKRSKFLSTVAKFL [IRR1] had a protein stability index (doa10∆) of 2.76 ± 0.052, a protein stability index (pdr5∆) of 2.28 ± 0.054, a protein stability index (san1∆) of 2.08 ± 0.067 and a protein stability index (ubr1∆) of 2.4 ± 0.035.
For SSGFNEDIVGALRRRVG [REC8], in that order: 1.17 ± 0.085, 1.16 ± 0.055, 1.44 ± 0.26 and 1.11 ± 0.11.
For SSHQRVFKLSTNLISKI [SWP82], in that order: 2.08 ± 0.073, 1.97 ± 0.057, 1.52 ± 0.11 and 1.93 ± 0.048.
For SSLEARYFFYLSKINAI [RPN3], in that order: 1.74 ± 0.05, 2.17 ± 0.064, 1.95 ± 0.1 and 1.75 ± 0.042.
As to SSLSAIIVFGYPESISN [YDL088C/ASM4], the protein stability index worked out at 1.75 ± 0.067 (doa10∆), 1.88 ± 0.046 (pdr5∆), 2.16 ± 0.086 (san1∆) and 2.01 ± 0.062 (ubr1∆).
For SSLYEASLNALKESIKN [RPN1] the same measures were 3.26 ± 0.1, 3.1 ± 0.1, 3.38 ± 0.085 and 3.08 ± 0.065.
For SSNTNNNTNNNNTNTGA [SWI1], in that order: 3.48 ± 0.071, 3.29 ± 0.069, 3.29 ± 0.057 and 3.33 ± 0.065.
For SSPDTMKLTDLLSLINS [SNF12], the protein stability index is 2.69 ± 0.042 (doa10∆), 2.73 ± 0.039 (pdr5∆), 2.81 ± 0.047 (san1∆) and 2.67 ± 0.036 (ubr1∆).
For SSPEEPFMSYSPQLTAI [SNF12] the same measures were 2.45 ± 0.065, 2.79 ± 0.063, 2.7 ± 0.066 and 2.77 ± 0.051.
For the sequence SSSMDMQANTNALRRNL [SSN3], the protein stability index by setting is: (doa10∆) 2.63 ± 0.055; (pdr5∆) 2.33 ± 0.05; (san1∆) 3.13 ± 0.046; (ubr1∆) 2.28 ± 0.043.
In the case of SSTGVPESIDTILSSKL [SRB2], the protein stability index turned out to be 2.62 ± 0.19 (doa10∆), 2.92 ± 0.13 (pdr5∆), 2.93 ± 0.075 (san1∆) and 3.04 ± 0.075 (ubr1∆).
For SSTKDYLTPPHECRLRD [RET1] the same measures were 3.34 ± 0.12, 3.22 ± 0.14, 3.2 ± 0.18 and 3.25 ± 0.16.
As for SSTYYNLDYLFELIELV [NUT1], the protein stability index is, setting by setting: (pdr5∆) 2.62 ± 0.17; (san1∆) 2.78 ± 0.15.
For SSVFLPSRKDCMEVASA [BRR2], the protein stability index is 2.73 ± 0.063 (doa10∆), 3.4 ± 0.077 (pdr5∆), 3.33 ± 0.066 (san1∆) and 3.19 ± 0.059 (ubr1∆).
For SSVKTCFKPMSLTSKRL [RIP1] the same measures were 3.02 ± 0.063, 3.04 ± 0.063, 2.85 ± 0.047 and 2.62 ± 0.033.
For SSYDLLFNESFIMASVG [SRP72] the same measures were 3.18 ± 0.12, 2.88 ± 0.15, 2.76 ± 0.1 and 3.16 ± 0.059.
The sequence STDELVGSPLTVSILQE [POP8] showed a protein stability index (doa10∆) of 2.08 ± 0.084, a protein stability index (pdr5∆) of 2.62 ± 0.11, a protein stability index (san1∆) of 2 ± 0.1 and a protein stability index (ubr1∆) of 2.26 ± 0.084.
For STDKLVQCHGSFATATC [SIR2] the same measures were 2.72 ± 0.066, 2.67 ± 0.048, 2.48 ± 0.063 and 2.76 ± 0.037.
Consider STFENRNVGKTLVNKST [RPS1A], for which the protein stability index is, setting by setting: (doa10∆) 2.91 ± 0.085; (pdr5∆) 2.74 ± 0.059; (san1∆) 3.09 ± 0.055; (ubr1∆) 3.14 ± 0.068.
For STFREWKNLVLKLSQAF [YJR042W/NUP85] the same measures were 2.85 ± 0.079, 2.37 ± 0.096, 2.64 ± 0.068 and 2.74 ± 0.076.
For STLEPTLRKELEQIQVQ [YIL149C/MLP2] the same measures were 2.75 ± 0.096, 3.01 ± 0.088, 2.89 ± 0.062 and 2.3 ± 0.048.
For STLGDCLGIKDEEMLTS [GAL11] the same measures were 3.17 ± 0.18, 3.11 ± 0.13, 2.81 ± 0.062 and 3.04 ± 0.088.
Take STMKENKDLSELVIRLE [YIL149C/MLP2]: the protein stability index by setting is: (doa10∆) 3.08 ± 0.08; (pdr5∆) 3.1 ± 0.082; (san1∆) 3.16 ± 0.065; (ubr1∆) 3.09 ± 0.069.
For STNESNKSISDEITEDM [SSN2], in that order: 2.5 ± 0.05, 2.75 ± 0.057, 2.8 ± 0.05 and 2.98 ± 0.045.
In the case of STNGLGMCQLYFWHKIW [SNU114], the protein stability index is, setting by setting: (pdr5∆) 1.24 ± 0.24; (san1∆) 2.56 ± 0.21.
For the sequence STPYLEILVEESGLRPV [PCI8], the protein stability index (doa10∆) amounted to 1.57 ± 0.048, the protein stability index (pdr5∆) was determined as 1.55 ± 0.091, the protein stability index (san1∆) is 1.54 ± 0.19 and the protein stability index (ubr1∆) was determined as 2.17 ± 0.091.
